We go through 1 molecule from article PMC8256087.

This assay deals with SecYEG(148/298) labeled with Cy3 and Atto647N, embedded in nanodiscs (UniProt P0AGA2). Description: not stated; ratio of YidC to SecY in nanodiscs prepared with YidC at a concentration equal to that of SecYEG (SI Appendix, Fig. S9A).

B1: YidC (natural protein)
chain: MDSQRNLLVIALLFVSFMIWQAWEQDKNPQPQAQQTTQTTTTAAGSAADQGVPASGQGKLISVKTDVLDLTINTRGGDVEQALLPAYPKELNSTQPFQLLETSPQFIYQAQSGLTGRDGPDNPANGPRPLYNVEKDAYVLAEGQNELQVPMTYTDAAGNTFTKTFVLKRGDYAVNVNYNVQNAGEKPLEISSFGQLKQSITLPPHLDTGSSNFALHTFRGAAYSTPDEKYEKYKFDTIADNENLNISSKGGWVAMLQQYFATAWIPHNDGTNNFYTANLGNGIAAIGYKSQPVLVQPGQTGAMNSTLWVGPEIQDKMAAVAPHLDLTVDYGWLWFISQPLFKLLKWIHSFVGNWGFSIIIITFIVRGIMYPLTKAQYTSMAKMRMLQPKIQAMRERLGDDKQRISQEMMALYKAEKVNPLGGCFPLLIQMPIFLALYYMLMGSVELRQAPFALWIHDLSAQDPYYILPILMGVTMFFIQKMSPTTVTDPMQQKIMTFMPVIFTVFFLWFPSGLVLYYIVSNLVTIIQQQLIYRGLEKRGLHSREKKKS
For B1, the stoichiometry N (usually the number of molecules, sites or subunits per partner or assembly) was 1 YidC:SecY.
